Laboratory results as given in patent US20250289897A1 (Eli Lilly, published 2025).
Residue numbers refer to the chain shown, from its start. Blank lines part the entries; values can stand above or below the binder they belong to.

How the values were obtained:
[1] = biological target: T1, human LEPR, full length, on HEK293-STAT3Luc-hLepR1 cells (Homo sapiens, UniProt P48357 22-1165); test: cell-based or functional assay
T1 sequence: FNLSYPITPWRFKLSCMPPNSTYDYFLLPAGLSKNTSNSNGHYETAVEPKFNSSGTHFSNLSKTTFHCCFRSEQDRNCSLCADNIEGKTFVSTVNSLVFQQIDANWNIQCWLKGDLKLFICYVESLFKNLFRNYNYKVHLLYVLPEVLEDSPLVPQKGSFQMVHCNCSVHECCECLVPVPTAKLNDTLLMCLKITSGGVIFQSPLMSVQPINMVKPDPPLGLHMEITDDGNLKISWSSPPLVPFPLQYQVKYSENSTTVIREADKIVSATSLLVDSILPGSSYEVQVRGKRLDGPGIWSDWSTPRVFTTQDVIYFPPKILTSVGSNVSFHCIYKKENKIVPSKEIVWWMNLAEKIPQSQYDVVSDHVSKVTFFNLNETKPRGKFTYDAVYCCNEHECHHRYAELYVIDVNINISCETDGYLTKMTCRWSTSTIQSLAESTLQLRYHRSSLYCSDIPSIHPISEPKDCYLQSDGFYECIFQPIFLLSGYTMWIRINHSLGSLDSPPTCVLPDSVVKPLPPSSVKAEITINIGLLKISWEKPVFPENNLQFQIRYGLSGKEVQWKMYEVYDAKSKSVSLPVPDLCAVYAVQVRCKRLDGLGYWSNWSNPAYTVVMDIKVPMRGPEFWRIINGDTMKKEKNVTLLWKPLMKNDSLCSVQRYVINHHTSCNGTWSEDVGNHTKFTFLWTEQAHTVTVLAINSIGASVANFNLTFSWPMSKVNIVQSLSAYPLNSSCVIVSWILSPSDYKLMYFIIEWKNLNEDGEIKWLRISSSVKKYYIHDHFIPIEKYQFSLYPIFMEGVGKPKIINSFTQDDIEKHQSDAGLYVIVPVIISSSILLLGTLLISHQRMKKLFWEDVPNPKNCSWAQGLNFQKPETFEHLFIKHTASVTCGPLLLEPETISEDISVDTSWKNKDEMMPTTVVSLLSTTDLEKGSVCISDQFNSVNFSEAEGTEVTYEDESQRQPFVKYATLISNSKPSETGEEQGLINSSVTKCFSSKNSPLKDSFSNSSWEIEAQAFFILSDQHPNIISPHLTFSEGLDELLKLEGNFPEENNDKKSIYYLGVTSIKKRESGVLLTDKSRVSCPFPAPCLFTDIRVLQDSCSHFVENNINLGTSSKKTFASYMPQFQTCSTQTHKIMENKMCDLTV

[2] = biological target: T1, human LEPR, full length, on …; test: cell-based or functional assay; remark: listed apart in the source
Rat LEPR-ECD-His = biological target: T2, Rat LEPR-ECD-His (rat, UniProt Q62959 22-839); test: SPR (Biacore T200), antibody captured on Protein A/G chip, n = 1
T2 sequence: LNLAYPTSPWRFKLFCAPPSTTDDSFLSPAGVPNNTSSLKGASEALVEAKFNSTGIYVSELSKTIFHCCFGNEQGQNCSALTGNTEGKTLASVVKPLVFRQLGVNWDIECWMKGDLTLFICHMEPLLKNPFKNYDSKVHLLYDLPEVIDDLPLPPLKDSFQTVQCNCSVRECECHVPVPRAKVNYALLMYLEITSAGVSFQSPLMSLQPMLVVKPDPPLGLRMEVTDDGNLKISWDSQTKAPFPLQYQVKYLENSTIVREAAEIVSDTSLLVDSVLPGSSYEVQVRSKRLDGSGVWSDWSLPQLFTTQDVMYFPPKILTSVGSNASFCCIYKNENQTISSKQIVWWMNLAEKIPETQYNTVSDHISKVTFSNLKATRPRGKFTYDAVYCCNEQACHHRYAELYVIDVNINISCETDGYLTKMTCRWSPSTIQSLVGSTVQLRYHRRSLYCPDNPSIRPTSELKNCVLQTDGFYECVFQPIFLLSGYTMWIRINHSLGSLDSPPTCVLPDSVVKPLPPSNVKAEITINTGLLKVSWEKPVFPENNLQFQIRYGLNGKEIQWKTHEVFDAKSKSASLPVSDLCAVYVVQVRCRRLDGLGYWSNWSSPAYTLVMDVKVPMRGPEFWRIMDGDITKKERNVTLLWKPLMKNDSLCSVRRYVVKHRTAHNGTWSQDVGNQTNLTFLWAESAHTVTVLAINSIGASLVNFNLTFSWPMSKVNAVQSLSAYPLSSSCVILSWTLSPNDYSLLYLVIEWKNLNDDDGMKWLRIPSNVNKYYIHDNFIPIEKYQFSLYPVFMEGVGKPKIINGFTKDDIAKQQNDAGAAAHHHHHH

[3] = biological target: T1, human LEPR, full length, on …; test: flow cytometry on live HEK293-STAT3Luc-hLepR1 cells, AF647 anti-human IgG; average of 4 runs
[4] = biological target: T3, cynomolgus monkey LEPR, full length, on HEK293-STAT3Luc-cmLepR2 cells (Macaca fascicularis); test: flow cytometry on live HEK293-STAT3Luc-cmLepR2 cells, AF647 anti-human IgG; average of 4 runs
T3 construct: whole, on cells; also called cyno-LEPR; Macaca fascicularis LEPR

[5] = biological target: T4, Recombinant LEPR extracellular domain fused to hIgG1-Fc (human LEPR ECD-TEV-Fc) (human); test: ELISA, plate coated with human LEPR ECD (SEQ ID NO:30) at 2 ug/mL, antibody titrated 1:3 from 50 ug/mL, goat anti-human kappa AP detection, OD560
T4 construct: The entry holds ECD, TEV site, human IgG1 Fc and a His tag in one chain; also called LEPR-Fc; hLEPR-TEV-hIgG1Fc

EC50 (nM), pSTAT3 AlphaLISA, after pre-exposure to 30 nM Antibody A and wash-out [1]: 0.36 nM | EC50 (nM), pSTAT3 AlphaLISA, vehicle-exposed cells [1]: 0.331 nM | Top (%), pSTAT3 AlphaLISA against 30 nM leptin, vehicle-exposed cells [1]: 68.9% | Maximum RLU, pERK1/2 AlphaLISA (baseline 29762.5) [2]: 86000 RLU | Bottom (gMFI) [3]: 131 gMFI | Top (gMFI) [3]: 2460 gMFI | Bottom (gMFI) [4]: 254 gMFI | Top (gMFI) [4]: 12100 gMFI | EC50 (read off the curve) [5]: ~0.06 µg/mL
B1: Antibody A (antibody, human IgG1, kappa, L234A L235A)
heavy: EVQLLESGGGLVQPGGSLRLSCAASGFTFSSFAMSWVRQAPGKGLEWVSAISGSGGSTYSADSVRGRFTISRDNSKNTLYLQMNSLRAEDTAVYYCAKDQGDWDFLFDYWGQGTLVTVSSASTKGPSVFPLAPSSKSTSGGTAALGCLVKDYFPEPVTVSWNSGALTSGVHTFPAVLQSSGLYSLSSVVTVPSSSLGTQTYICNVNHKPSNTKVDKRVEPKSCDKTHTCPPCPAPEAAGGPSVFLFPPKPKDTLYITREPEVTCVVVSVSHEDPEVKFNWYVDGVEVHNAKTKPREEQYNSTYRVVSVLTVLHQDWLNGKEYKCKVSNKALPAPIEKTISKAKGQPREPQVYTLPPSREEMTKNQVSLTCLVKGFYPSDIAVEWESNGQPENNYKTTPPVLDSDGSFFLYSKLTVDKSRWQQGNVFSCSVMHEALHNHYTQKSLSLSPGK
light: DIQMTQSPSFLSASVGDRVTITCRASQGISSSLAWYQQKPGKAPKLLIYTASTLQSGVPSRFSGSGSGTEFTLTISSLQPEDFATYYCQQLIYYPFTFGQGTKVEIKRTVAAPSVFIFPPSDEQLKSGTASVVCLLNNFYPREAKVQWKVDNALQSGNSQESVTEQDSKDSTYSLSSTLTLSKADYEKHKVYACEVTHQGLSSPVTKSFNRGEC
notes: IgG1 mAb
binding result (Rat LEPR-ECD-His): no binding (tested: LEPR-ECD tested up to 1000 nM)

EC50 (nM), pSTAT3 AlphaLISA, after pre-exposure to 30 nM Antibody B and wash-out [1]: 1.06 nM | EC50 (nM), pSTAT3 AlphaLISA, vehicle-exposed cells [1]: 0.986 nM | Top (%), pSTAT3 AlphaLISA against 30 nM leptin, vehicle-exposed cells [1]: 70.5% | Maximum RLU, pERK1/2 AlphaLISA (baseline 29762.5) [2]: 83400 RLU | Bottom (gMFI) [3]: 123 gMFI | Top (gMFI) [3]: 2940 gMFI | Bottom (gMFI) [4]: 243 gMFI | Top (gMFI) [4]: 12100 gMFI | EC50 (read off the curve) [5]: ~0.08 µg/mL
B2: Antibody B (antibody, human IgG1, kappa, L234A L235A, V domains shown)
VH: EVQLLESGGGLVQPGGSLRLSCAASGFTFSSFAMSWVRQAPGKGLEWVSAISGSGGSTYSADSVRGRFTISRDNSKNTLYLQMNSLRAEDTAVYYCAKDQGDWDFLFDYWGQGTLVTVSS
VL: DIQMTQSPSFLSASVGDRVTITCRVSQGISSSLAWYQQKPGKAPKLLIYTASTLQSGVPSRFSGSGSGTEFTLTISSLQPEDFATYYCQQLNYYPFTFGQGTKVEIKR
binding result (Rat LEPR-ECD-His): no binding (tested: LEPR-ECD tested up to 1000 nM)

EC50 (nM), pSTAT3 AlphaLISA, after pre-exposure to 30 nM Antibody C and wash-out [1]: 1.14 nM | EC50 (nM), pSTAT3 AlphaLISA, vehicle-exposed cells [1]: 1.04 nM | Top (%), pSTAT3 AlphaLISA against 30 nM leptin, vehicle-exposed cells [1]: 71.7% | Maximum RLU, pERK1/2 AlphaLISA (baseline 29762.5) [2]: 87000 RLU | Bottom (gMFI) [3]: 144 gMFI | Top (gMFI) [3]: 1850 gMFI | Bottom (gMFI) [4]: 214 gMFI | Top (gMFI) [4]: 10800 gMFI | EC50 (read off the curve) [5]: ~0.07 µg/mL
B3: Antibody C (antibody, human IgG1, kappa, L234A L235A, V domains shown)
VH: B2 VH
VL: B2 VL with V25A, T97S
binding result (Rat LEPR-ECD-His): no binding (tested: LEPR-ECD tested up to 1000 nM)
